Key:
[1] = target: AChE of primary quail muscle cells (quail); test: cell-based or functional assay
[2] = target: AChE expressed in COS cells (human and/or mouse AChE) (human and/or mouse); test: cell-based or functional assay

Binder	tetrameric G4 AChE activity in the medium (velocity sedimentation, 10 uM peptide overnight) [1] [fold]	G4 AChE level [2]
CCLLTPPPPPLFPPPFF [ColQ PRAD peptide (17 amino acid ColQ PRAD polypeptide)]	> 2	–
CCLLTPPPPPLFPPPFFKDEL [ColQ PRAD-KDEL peptide]	–	2.37
VNKCCLLTPPPPPLFPPPFFKDEL [SEQ ID NO: 6]	–	2.26
VNKCCLLTPPPPPLFPPPFFTETLDEL [SEQ ID NO: 8]	–	2.17
KRSVNKCCLLTPPPPPLFPPPFFKDEL [SEQ ID NO: 9]	–	2.37
KRSVNKCCLLTPPPPPLFPPPFFTETNILKDEL [SEQ ID NO: 11]	–	2.14

Reference: US20110183922A1 (UNIVERSITY OF MIAMI, published 2011)
